In paper PMC11385924 one finds Kd data, which are given here for two substances.

Data set [1] concerns Km-AP23 (artificial (CPDiffusion design on KmAgo backbone)). The data set is described as follows: fluorescence polarization. The conditions noted are these: FP: 5 nM FAM-DNA, 0-1500 nM protein, 15 mM Tris-HCl pH 7.4, 200 mM NaCl, 5 mM MnCl2, 37 C, 1 h, EMSA: 1 uM FAM-guide, 2 uM protein.
For data set [2], the system named is KmAgo (Km-WT) (Kurthia massiliensis). Briefly: fluorescence polarization. The conditions noted are these: FP: 5 nM FAM-DNA, 0-1500 nM protein, 15 mM Tris-HCl pH 7.4, 200 mM NaCl, 5 mM MnCl2, 37 C, 1 h, EMSA: 1 uM FAM-guide, 2 uM protein.

As to gDNA (guide DNA), the Kd in data set [1] was 17 nM; in data set [2] it was 65.9 nM.

Regarding tDNA (target DNA), the Kd in data set [1] amounted to 29.5 nM; in data set [2] it was 70 nM.
